Drawing on PMC5436001, this text covers stoichiometry N for one substance.

A word on the stoichiometry N: it is a count of units in the complex or per binding partner.

The target of the assay is mMyrf N-terminal fragment (from N-terminally tagged wild-type mouse Myrf) (mouse). Description: co-IP.

In the case of “mMyrf N-terminal fragment (from N-terminally tagged wild-type mouse Myrf) (domain or fragment)”, the stoichiometry N came out at 3.
